Measured values: patent US20150141347A1

Assays:
[1] = target: NY-ESO-1 157-165 peptide … (SEQ ID NO: 2) on HLA-A2 of peptide-pulsed cells; test: cell-based or functional assay
[2] = target: … (SEQ ID NO: 23) on HLA-A2 of pulsed T2 cells; test: cell-based or functional assay
[3] = target: … (SEQ ID NO: 24) on HLA-A2 of pulsed T2 cells; test: cell-based or functional assay
[4] = target: … (SEQ ID NO: 25) on HLA-A2 of pulsed T2 cells; test: cell-based or functional assay
[5] = target: … (SEQ ID NO: 26) on HLA-A2 of pulsed T2 cells; test: cell-based or functional assay
[6] = target: … (SEQ ID NO: 27) on HLA-A2 of pulsed T2 cells; test: cell-based or functional assay
[7] = target: … (SEQ ID NO: 28) on HLA-A2 of pulsed T2 cells; test: cell-based or functional assay
[8] = target: NY-ESO-1 peptide on HLA-A*02:01 (human); test: IFN-gamma ELISA; PBL transduced with 1G4-LY, after one OKT3 stimulation, peptide-pulsed T2 cells; full-length, on cells

Substance: wild-type human anti-NY-ESO-1 TCR (1G4)
- IFN-γ (pg/ml); Patient 1 PBL S1D7, T2 + 0.1 ng/ml peptide [1]: 99 pg/mL
- IFN-γ (pg/ml); Patient 1 PBL S1D7, T2 + 1 ng/ml peptide [1]: 851 pg/mL
- IFN-γ (pg/ml); Patient 1 PBL S1D7, T2 + 10 ng/ml peptide [1]: 1520 pg/mL
- IFN-γ (pg/ml); Patient 1 PBL S1D7, T2 + 100 ng/ml peptide [1]: 2480 pg/mL
- IFN-γ (pg/ml); Patient 1 PBL S1D7, T2 + 1 µg/ml peptide [1]: 2450 pg/mL
- IFN-γ (pg/ml); Patient 1 expanded PBL S2D9, T2 + 0.1 ng/ml peptide [1]: 1280 pg/mL
- IFN-γ (pg/ml); Patient 1 expanded PBL S2D9, T2 + 1 ng/ml peptide [1]: 6990 pg/mL
- IFN-γ (pg/ml); Patient 1 expanded PBL S2D9, T2 + 10 ng/ml peptide [1]: 13500 pg/mL
- IFN-γ (pg/ml); Patient 1 expanded PBL S2D9, T2 + 100 ng/ml peptide [1]: 19400 pg/mL
- IFN-γ (pg/ml); Patient 1 expanded PBL S2D9, T2 + 1 µg/ml peptide [1]: 26400 pg/mL
- IFN-γ (pg/ml); Patient 2 PBL S1D7, T2 + 0.1 ng/ml peptide [1]: 41 pg/mL
- IFN-γ (pg/ml); Patient 2 PBL S1D7, T2 + 1 ng/ml peptide [1]: 397 pg/mL
- IFN-γ (pg/ml); Patient 2 PBL S1D7, T2 + 10 ng/ml peptide [1]: 860 pg/mL
- IFN-γ (pg/ml); Patient 2 PBL S1D7, T2 + 100 ng/ml peptide [1]: 1100 pg/mL
- IFN-γ (pg/ml); Patient 2 PBL S1D7, T2 + 1 µg/ml peptide [1]: 1960 pg/mL
- IFN-γ (pg/ml); Patient 2 expanded PBL S2D9, T2 + 0.1 ng/ml peptide [1]: 747 pg/mL
- IFN-γ (pg/ml); Patient 2 expanded PBL S2D9, T2 + 1 ng/ml peptide [1]: 3550 pg/mL
- IFN-γ (pg/ml); Patient 2 expanded PBL S2D9, T2 + 10 ng/ml peptide [1]: 7350 pg/mL
- IFN-γ (pg/ml); Patient 2 expanded PBL S2D9, T2 + 100 ng/ml peptide [1]: 12700 pg/mL
- IFN-γ (pg/ml); Patient 2 expanded PBL S2D9, T2 + 1 µg/ml peptide [1]: 19500 pg/mL

Substance: 1G4-LY TCR
- IFN-γ (pg/ml); Donor H after expanding numbers of cells, T2 + 0.1 ng/µl peptide [1]: 89 pg/mL
- IFN-γ (pg/ml); Donor H after expanding numbers of cells, T2 + 1 ng/µl peptide [1]: 512 pg/mL
- IFN-γ (pg/ml); Donor H after expanding numbers of cells, T2 + 10 ng/µl peptide [1]: 2970 pg/mL
- IFN-γ (pg/ml); Donor H after expanding numbers of cells, T2 + 100 ng/µl peptide [1]: 4340 pg/mL
- IFN-γ (pg/ml); Donor H after stimulation with OKT3, T2 + 0.1 ng/µl peptide [1]: 1400 pg/mL
- IFN-γ (pg/ml); Donor H after stimulation with OKT3, T2 + 1 ng/µl peptide [1]: 1710 pg/mL
- IFN-γ (pg/ml); Donor H after stimulation with OKT3, T2 + 10 ng/µl peptide [1]: 3020 pg/mL
- IFN-γ (pg/ml); Donor H after stimulation with OKT3, T2 + 100 ng/µl peptide [1]: 3780 pg/mL
- IFN-γ (pg/ml); Donor K PBL, T2 + 1 ng/µL peptide [1]: 678 pg/mL
- IFN-γ (pg/ml); Donor K PBL, T2 + 10 ng/µL peptide [1]: 3760 pg/mL
- IFN-γ (pg/ml); Donor L PBL, T2 + 1 ng/µL peptide [1]: 184 pg/mL
- IFN-γ (pg/ml); Donor L PBL, T2 + 10 ng/µL peptide [1]: 754 pg/mL
- IFN-γ (pg/ml); Patient 1 PBL S1D7, T2 + 0.1 ng/ml peptide [1]: 0 pg/mL
- IFN-γ (pg/ml); Patient 1 PBL S1D7, T2 + 1 ng/ml peptide [1]: 677 pg/mL
- IFN-γ (pg/ml); Patient 1 PBL S1D7, T2 + 10 ng/ml peptide [1]: 1090 pg/mL
- IFN-γ (pg/ml); Patient 1 PBL S1D7, T2 + 100 ng/ml peptide [1]: 1600 pg/mL
- IFN-γ (pg/ml); Patient 1 PBL S1D7, T2 + 1 µg/ml peptide [1]: 2170 pg/mL
- IFN-γ (pg/ml); Patient 1 expanded PBL S2D9, T2 + 0.1 ng/ml peptide [1]: 1330 pg/mL
- IFN-γ (pg/ml); Patient 1 expanded PBL S2D9, T2 + 1 ng/ml peptide [1]: 7260 pg/mL
- IFN-γ (pg/ml); Patient 1 expanded PBL S2D9, T2 + 10 ng/ml peptide [1]: 16200 pg/mL
- IFN-γ (pg/ml); Patient 1 expanded PBL S2D9, T2 + 100 ng/ml peptide [1]: 21600 pg/mL
- IFN-γ (pg/ml); Patient 1 expanded PBL S2D9, T2 + 1 µg/ml peptide [1]: 30600 pg/mL
- IFN-γ (pg/ml); Patient 2 PBL S1D7, T2 + 0.1 ng/ml peptide [1]: 40 pg/mL
- IFN-γ (pg/ml); Patient 2 PBL S1D7, T2 + 1 ng/ml peptide [1]: 291 pg/mL
- IFN-γ (pg/ml); Patient 2 PBL S1D7, T2 + 10 ng/ml peptide [1]: 879 pg/mL
- IFN-γ (pg/ml); Patient 2 PBL S1D7, T2 + 100 ng/ml peptide [1]: 1280 pg/mL
- IFN-γ (pg/ml); Patient 2 PBL S1D7, T2 + 1 µg/ml peptide [1]: 2440 pg/mL
- IFN-γ (pg/ml); Patient 2 expanded PBL S2D9, T2 + 0.1 ng/ml peptide [1]: 662 pg/mL
- IFN-γ (pg/ml); Patient 2 expanded PBL S2D9, T2 + 1 ng/ml peptide [1]: 2500 pg/mL
- IFN-γ (pg/ml); Patient 2 expanded PBL S2D9, T2 + 10 ng/ml peptide [1]: 6800 pg/mL
- IFN-γ (pg/ml); Patient 2 expanded PBL S2D9, T2 + 100 ng/ml peptide [1]: 10600 pg/mL
- IFN-γ (pg/ml); Patient 2 expanded PBL S2D9, T2 + 1 µg/ml peptide [1]: 19400 pg/mL
- lowest peptide concentration on T2 cells that was recognized (IFN-γ) [1]: 0.1 ng/mL
- IFN-γ (pg/ml); Donor K PBL, T2 + 1 ng/µL peptide [2]: 1780 pg/mL
- IFN-γ (pg/ml); Donor K PBL, T2 + 10 ng/µL peptide [2]: 3270 pg/mL
- IFN-γ (pg/ml); Donor L PBL, T2 + 1 ng/µL peptide [2]: 370 pg/mL
- IFN-γ (pg/ml); Donor L PBL, T2 + 10 ng/µL peptide [2]: 1380 pg/mL
- IFN-γ (pg/ml); Donor K PBL, T2 + 1 ng/µL peptide [3]: 0 pg/mL
- IFN-γ (pg/ml); Donor K PBL, T2 + 10 ng/µL peptide [3]: 0 pg/mL
- IFN-γ (pg/ml); Donor L PBL, T2 + 1 ng/µL peptide [3]: 225 pg/mL
- IFN-γ (pg/ml); Donor L PBL, T2 + 10 ng/µL peptide [3]: 185 pg/mL
- IFN-γ (pg/ml); Donor K PBL, T2 + 1 ng/µL peptide [4]: 0 pg/mL
- IFN-γ (pg/ml); Donor K PBL, T2 + 10 ng/µL peptide [4]: 0 pg/mL
- IFN-γ (pg/ml); Donor L PBL, T2 + 1 ng/µL peptide [4]: 148 pg/mL
- IFN-γ (pg/ml); Donor L PBL, T2 + 10 ng/µL peptide [4]: 294 pg/mL
- IFN-γ (pg/ml); Donor K PBL, T2 + 1 ng/µL peptide [5]: 884 pg/mL
- IFN-γ (pg/ml); Donor K PBL, T2 + 10 ng/µL peptide [5]: 1110 pg/mL
- IFN-γ (pg/ml); Donor L PBL, T2 + 1 ng/µL peptide [5]: 220 pg/mL
- IFN-γ (pg/ml); Donor L PBL, T2 + 10 ng/µL peptide [5]: 297 pg/mL
- IFN-γ (pg/ml); Donor K PBL, T2 + 1 ng/µL peptide [6]: 457 pg/mL
- IFN-γ (pg/ml); Donor K PBL, T2 + 10 ng/µL peptide [6]: 5670 pg/mL
- IFN-γ (pg/ml); Donor L PBL, T2 + 1 ng/µL peptide [6]: 208 pg/mL
- IFN-γ (pg/ml); Donor L PBL, T2 + 10 ng/µL peptide [6]: 1030 pg/mL
- IFN-γ (pg/ml); Donor K PBL, T2 + 1 ng/µL peptide [7]: 0 pg/mL
- IFN-γ (pg/ml); Donor K PBL, T2 + 10 ng/µL peptide [7]: 0 pg/mL
- IFN-γ (pg/ml); Donor L PBL, T2 + 1 ng/µL peptide [7]: 82 pg/mL
- IFN-γ (pg/ml); Donor L PBL, T2 + 10 ng/µL peptide [7]: 97 pg/mL
- lowest peptide concentration recognised [8]: < 0.1 ng/mL
